Values quoted from earlier work in paper PMC7290885.
Where two headings read alike, the source gives them in different places.

How the values were obtained:
[1] = molecular target: GLP-1R (Homo sapiens) (UniProt P43220)
[2] = molecular target: GLP-1R (Homo sapiens) (UniProt P43220); remark: listed apart in the source
[3] = molecular target: GLP-1R (Homo sapiens) (UniProt P43220); remark: listed apart in the source
[4] = molecular target: GLP-1R (Homo sapiens) (UniProt P43220); remark: listed apart in the source

UniProt P43220, sequence (P43220 24-463): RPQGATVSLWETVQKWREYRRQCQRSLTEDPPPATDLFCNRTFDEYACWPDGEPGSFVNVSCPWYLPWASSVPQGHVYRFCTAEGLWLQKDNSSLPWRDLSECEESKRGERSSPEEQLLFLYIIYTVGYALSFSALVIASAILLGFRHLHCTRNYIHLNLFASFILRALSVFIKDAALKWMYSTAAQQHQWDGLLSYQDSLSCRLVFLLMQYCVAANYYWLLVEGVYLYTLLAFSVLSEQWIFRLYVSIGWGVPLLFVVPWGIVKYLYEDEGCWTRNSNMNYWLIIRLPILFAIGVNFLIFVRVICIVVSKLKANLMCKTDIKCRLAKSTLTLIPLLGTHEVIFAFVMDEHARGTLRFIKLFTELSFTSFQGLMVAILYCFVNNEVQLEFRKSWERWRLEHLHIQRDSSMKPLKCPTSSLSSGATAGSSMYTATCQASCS

**Q.** With exendin-4 (from UniProt P26349) as the substance, how does the Kd [1] read?
**A.** 0.14 nM

**Q.** With “LCA-M1 (exendin-4 derivative) (from UniProt P26349)” as the substance, how does the Kd [2] read?
**A.** 0.47 nM

**Q.** Which Kd [3] does the source give for “LCA-M2 (exendin-4 derivative) (from UniProt P26349)” here?
**A.** 0.55 nM

**Q.** Which Kd [4] does the source give for “LCA-Di (exendin-4 derivative) (from UniProt P26349)” here?
**A.** 71.7 nM
